Reference: PMC8765631

Assays:
[1] = molecular target: RhsA_(ΔTMD) (RhsA lacking its N-terminal prePAAR motif and TMD, residues 74-1486) (Pseudomonas protegens Pf-5); assay: cryo-EM structure; purified RhsA_(ΔTMD) at 4 mg/ml in 20 mM Tris-HCl pH 8.0, 150 mM NaCl; single particle analysis with C2 symmetry, 3.3 Å
[2] = molecular target: VgrG1 from Pseudomonas protegens (Pseudomonas protegens Pf-5); assay: cryo-EM structure

RhsA_(ΔTMD) (RhsA lacking its N-terminal prePAAR motif and TMD, residues 74-1486) (domain or fragment)
stoichiometry N [1]: 2

VgrG1 from Pseudomonas protegens (natural protein)
stoichiometry N [2]: 3
